US12122830 (ABL BIO, dated 2024)

Experiments:
[1] = target: T1, human ROR1 expressed on the cell surface (human, UniProt Q01973 30-937); experiment: flow cytometry on 697 cells (ALL), C2E3 IgG at 10 µg/mL, MFI of anti-ROR1 / MFI of 2nd Ab
T1 construct: whole, on cells; On JeKo-1 and Mino cells and other cancer cell lines (endogenous) and on transfected CHO and MC38 cells; also called cell surface-expressed ROR1; CHO-human ROR1
Protocol: (§1) For the cell lines, the binding to ROR1 was analyzed with FACS (FACSCalibur, BD Biosciences) by using the anti-ROR1 antibody of the present invention.
(§2) Specifically, after disassociating each cell line and washing in PBS, the number of cells was counted and set as 2 ×10^5 cells/200 µl PBS, and then the clone C2E3 among ROR1 monoclonal antibodies prepared in Example 3 was treated in 10 µg/mL, and it was reacted at 4° C. for 1 hour. After reaction, cells were washed in PBS, and then the FITC-labeled constant region (Fc)-specific antibody (Goat anti-human IgG FITC conjugate, Fc specific, Sigma, F9512, concentration: 2.0 mg/ml) was suspended in 2 µl/1 ×10^5 cells/200 µl PBS, and it was reacted at 4° C. for 1 hour. After reaction, cells were washed in PBS, it was analyzed using a FACSCalibur device. The negative control group was treated only with the FITC-labeled constant region (Fc)-specific antibody. To compare the expression degrees of ROR1 among the cancer cell lines, the value of the result for the peak shift in the experimental group treated with the ROR1 monoclonal antibody (C2E3) of the present invention was divided by the result for the peak shift in the control group (Mean Fluorescence Intensity Ratio MFI Ratio: MFI of anti-ROR1/MFI of 2nd Ab).

[2] = target: T1, human ROR1 expressed on the cell surface; experiment: flow cytometry on JeKo-1 cells (MCL), C2E3 IgG at 10 µg/mL, MFI of anti-ROR1 / MFI of 2nd Ab
Protocol: as §1, §2

[3] = target: T1, human ROR1 expressed on the cell surface; experiment: flow cytometry on A549 cells (lung cancer), C2E3 IgG at 10 µg/mL, MFI of anti-ROR1 / MFI of 2nd Ab
Protocol: as §1, §2

[4] = target: T1, human ROR1 expressed on the cell surface; experiment: flow cytometry on BT474 cells (breast cancer), C2E3 IgG at 10 µg/mL, MFI of anti-ROR1 / MFI of 2nd Ab
Protocol: as §1, §2

[5] = target: T1, human ROR1 expressed on the cell surface; experiment: flow cytometry on HCC70 cells (breast cancer), C2E3 IgG at 10 µg/mL, MFI of anti-ROR1 / MFI of 2nd Ab
Protocol: as §1, §2

[6] = target: T1, human ROR1 expressed on the cell surface; experiment: flow cytometry on HCT116 cells (colon cancer), C2E3 IgG at 10 µg/mL, MFI of anti-ROR1 / MFI of 2nd Ab
Protocol: as §1, §2

[7] = target: T1, human ROR1 expressed on the cell surface; experiment: flow cytometry on HCC1143 cells (breast cancer), C2E3 IgG at 10 µg/mL, MFI of anti-ROR1 / MFI of 2nd Ab
Protocol: as §1, §2

[8] = target: T1, human ROR1 expressed on the cell surface; experiment: flow cytometry on HCC1187 cells (breast cancer), C2E3 IgG at 10 µg/mL, MFI of anti-ROR1 / MFI of 2nd Ab
Protocol: as §1, §2

[9] = target: T1, human ROR1 expressed on the cell surface; experiment: flow cytometry on HCC1937 cells (breast cancer), C2E3 IgG at 10 µg/mL, MFI of anti-ROR1 / MFI of 2nd Ab
Protocol: as §1, §2

[10] = target: T1, human ROR1 expressed on the cell surface; experiment: flow cytometry on MKN-28 cells (gastric cancer), C2E3 IgG at 10 µg/mL, MFI of anti-ROR1 / MFI of 2nd Ab
Protocol: as §1, §2

[11] = target: T1, human ROR1 expressed on the cell surface; experiment: flow cytometry on NCI-H1975 cells (lung cancer), C2E3 IgG at 10 µg/mL, MFI of anti-ROR1 / MFI of 2nd Ab
Protocol: as §1, §2

[12] = target: T1, human ROR1 expressed on the cell surface; experiment: flow cytometry on MDA-MB-231 cells (breast cancer), C2E3 IgG at 10 µg/mL, MFI of anti-ROR1 / MFI of 2nd Ab
Protocol: as §1, §2

T1 sequence (Q01973 30-937): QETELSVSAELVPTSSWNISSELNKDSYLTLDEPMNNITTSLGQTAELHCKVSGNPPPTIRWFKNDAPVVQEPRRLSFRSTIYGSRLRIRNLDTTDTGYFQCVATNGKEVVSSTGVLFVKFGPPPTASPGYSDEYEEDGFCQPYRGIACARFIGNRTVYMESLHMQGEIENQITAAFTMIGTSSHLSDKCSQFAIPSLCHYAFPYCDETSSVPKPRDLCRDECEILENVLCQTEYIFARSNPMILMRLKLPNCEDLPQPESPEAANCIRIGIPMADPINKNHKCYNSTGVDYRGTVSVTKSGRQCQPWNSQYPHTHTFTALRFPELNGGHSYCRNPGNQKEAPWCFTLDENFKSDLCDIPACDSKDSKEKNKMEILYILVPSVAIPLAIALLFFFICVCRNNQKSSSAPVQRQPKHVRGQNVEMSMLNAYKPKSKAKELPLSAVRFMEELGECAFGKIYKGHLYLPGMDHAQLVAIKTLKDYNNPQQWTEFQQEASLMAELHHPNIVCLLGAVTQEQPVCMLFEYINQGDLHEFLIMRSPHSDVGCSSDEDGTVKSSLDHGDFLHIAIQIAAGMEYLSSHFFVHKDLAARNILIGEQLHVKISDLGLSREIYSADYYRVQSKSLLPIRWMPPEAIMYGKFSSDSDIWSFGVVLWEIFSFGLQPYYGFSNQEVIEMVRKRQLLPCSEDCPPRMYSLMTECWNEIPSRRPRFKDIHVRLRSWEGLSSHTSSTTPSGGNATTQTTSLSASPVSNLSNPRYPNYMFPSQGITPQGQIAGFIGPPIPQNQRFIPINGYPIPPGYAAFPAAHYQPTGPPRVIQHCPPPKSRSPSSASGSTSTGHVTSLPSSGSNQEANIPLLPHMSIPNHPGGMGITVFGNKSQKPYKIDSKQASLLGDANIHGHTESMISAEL

B1: C2E3 anti-ROR1 IgG antibody (antibody, V domains shown)
VH: EVQLLESGGGLVQPGGSLRLSCAASGFTFSNYAMSWVRQAPGKGLEWVSSISHNSGSTYYADSVKGRFTISRDNSKNTLYLQMNSLRAEDTAVYYCAKFISARKSLGRSYSNGMDVWGQGTLVTVSS
VL: QSVLTQPPSASGTPGQRVTISCTGSSSNIGSNDVTWYQQLPGTAPKLLIYADSKRPSGVPDRFSGSKSGTSASLAISGLRSEDEADYYCGTWDYSLSGYVFGGGTKLTVLG
Mean Fold Ratio [1]: 12
Mean Fold Ratio [2]: 4
Mean Fold Ratio [3]: 6
Mean Fold Ratio [4]: 1.7
Mean Fold Ratio [5]: 3.8
Mean Fold Ratio [6]: 18
Mean Fold Ratio [7]: 3.2
Mean Fold Ratio [8]: 9.3
Mean Fold Ratio [9]: 2.7
Mean Fold Ratio [10]: 4.9
Mean Fold Ratio [11]: 4.2
Mean Fold Ratio [12]: 8.8
